# Experiments:
# SHSY5Y neuronal cells = assay: Determination of cGMP in SHSY5Y neuronal cells under hypoxia; assay type: cell-based; settings: 6 hours hypoxia (1% oxygen), no exogenous nitrite, cells expressing the protein
# Procedure: SHSY5Y cells, expressing the GFP vector, wild type Ngb or H64L mutant Ngb were plated on Corning® CellBIND® Surface 100 mm culture dishes at a concentration of 5-7.5×10^5 cells/plate and grown to 80-90% confluence. After four days of growth, the cells were incubated for 6 hours under hypoxic conditions (1% oxygen). Following hypoxic treatment, the cGMP levels were measured using the cyclic GMP EIA Kit (Cayman Chemicals catalog #581021) according to the manufacturer's instructions. Protein levels were measured and used to normalize results.
# [1] = EPR spectroscopy of iron-nitrosyl-heme formation from nitrite; assay type: biochemical; settings: 1 mM nitrite
# Procedure: Iron nitrosyl species were measured by EPR spectroscopy using a Bruker EMX 10/12 spectrometer operating at 9.4 GHz, 5-G modulation, 10.1-milliwatt power, 327.68-ms time constant and 163.84-s scan over 600 G at 110 K as described previously (Basu et al., J Biol Chem 283:32590-32597, 2008; Azarov et al., J. Biol. Chem. 280:[…], 2005). The concentrations of Mb and Ngb species were determined by performing the double integral calculation and comparing to standard samples.
# [2] = Anaerobic reaction of deoxygenated globins with excess nitrite (nitrite reductase kinetics, absorption / stopped-flow spectroscopy); assay type: biochemical
# Procedure: Oxygen contamination was prevented by application of positive argon pressure without a channel for gas escape. Concentrations of single species during reactions were determined by least squares deconvolution of the visible absorption spectrum into standard reference spectra using Microsoft Excel analysis. OxyNgb was included to confirm successful deoxygenation before the reaction. […] Fast kinetic studies were performed using an Applied Photophysics DX-17 stopped-flow instrument equipped with rapid-scanning diode array detection. […] To determine bimolecular rate constants all reactions were analyzed with Pro-K software (Applied Photophysics) using singular value decomposition followed by fitting of the reduced data matrix to a pseudo-first order kinetic model.
# [3] = tested on: isolated rat liver mitochondria; assay: Hypoxic inhibition of respiration of isolated mitochondria; assay type: cell-based; settings: 5 μM protein with 20 μM nitrite, hypoxia
# Procedure: (§1) Mitochondria were isolated from the livers of male Sprague Dawley rats and incubated with wild-type or mutant Ngb proteins in a sealed, stirred chamber at 37° C. State 3 respiration was stimulated with succinate (15 mM) and ADP (1 mM) and oxygen consumption was measured with a Clark-type oxygen electrode. To measure inhibition of respiration in hypoxic conditions, respiring mitochondria were allowed to consume oxygen until the chamber became anoxic and then the chamber lid was removed to allow the diffusion of air back into the chamber. The rate of mitochondrial respiration was greater than the rate of oxygen entering the chamber such that the oxygen electrode trace remained at zero while the mitochondria were respiring. Nitrite was added to the chamber prior to the removal of the lid and deviation of the oxygen trace from a zero reading signified a decrease in respiration rate. All experiments were performed under conditions where substrates were not limiting. The extent of respiratory inhibition was quantified by measuring the time from equilibration of the mitochondria with air to the time when the oxygen trace deviated from zero. This time to inhibition was expressed as a percentage of maximal inhibition, where 100% inhibition was defined as the time to inhibition in the presence of cyanide and the time to the exhaustion of substrates was used as a measure of 0% inhibition. Similar experiments were performed with SHSY5Y cells suspended in the respirometer and treated with the uncoupler FCCP (5 μM) to measure hypoxic inhibition of cellular respiration.
# [4] = Reaction of met-Ngb with nitrite to produce nitrosyl-Ngb (nitrite ferric heme reduction); assay type: biochemical; settings: met-Ngb with nitrite in the presence of dithionite
# SHSY5Y cells = assay: Hypoxic inhibition of cellular respiration in SHSY5Y cells expressing Ngb; assay type: cell-based; settings: cells stably transfected with GFP-tagged Ngb, nitrite added, FCCP
# Procedure: as §1, with “Similar experiments were performed with SHSY5Y cells suspended in the respirometer and treated with the uncoupler FCCP (5 μM) to measure hypoxic inhibition of cellular respiration.” left out
# [5] = Direct measurement of NO release in gas phase (chemiluminescence); assay type: biochemical
# Description: Once a stable baseline was established Ngb was reacted with a known amount of nitrite as previously described (Huang et al., J Clin Invest 115:2099-2107, 2005).
# [6] = Determination of nitrite binding constants to met-Ngb (difference spectra titration); settings: met-Ngb 10 μM, 200 mM phosphate buffer, pH 7.4, 25° C.; read-out: Kd (NO2^−)
# Procedure: To determine the binding constant of nitrite to metNgb, 10 μM wild type and mutant Ngb in 200 mM phosphate buffer, pH 7.4, were incubated in a cuvette at 25° C. with increasing concentrations of nitrite and the UV—visible spectra were recorded after each increase in nitrite concentration. The constant KD for each protein was determined by interpolation of the absorbance data following procedures in Nicolis et al. (Biochem J 407:89-99, 2007).
molecule,measurement,setting,value
"H64L: stable five-coordinate mutant of human neuroglobin, His64 to Leu substitution, SEQ ID NO: 9 (protein) MERPEPELIRQSWRAVSRSPLEHGTVLFARLFALEPDLLPLFQYNCRQFSSPEDCLSSPEFLDLIRKVMLVIDAAVTNVEDLSSLEEYLASLGRKHRAVGVKLSSFSTVGESLLYMLEKCLGPAFTPATRAAWSQLYGAVVQAMSRGWDGE",cGMP levels (in words),SHSY5Y neuronal cells,significantly increased
same,completion of iron-nitrosyl formation by EPR (in words),[1],almost complete in one minute
same,rate of iron-nitrosyl-Ngb / NO formation by EPR (in words),[1]; 40±5 μM protein,dramatically increased the rate of NO formation
same,BRC higher than the wild type Ngb,"[2]; 100 μM nitrite, excess dithionite, relative to wild type",approximately 2000 fold
same,relative percentage of the total absorbance change (Soret peak 425 nm) in the first 60 minutes,"[2]; 1 mM nitrite, 0.1 M HEPES pH 7.4, H64L-Ngb normalized to 100%",100%
same,time to end point of the reaction (in words),"[2]; 1 mM nitrite, pH 7.4",reached the end point in the first minute
same,BRC from linear fit of kobs versus nitrite concentration (stopped-flow),"[2]; nitrite 10-1000 μM, 25° C., pH 7.4",259 ± 8 M⁻¹ s⁻¹
same,rate of nitrite reaction at acidic pH,[2]; pH 6.5 and 25° C.,"above 2,500 M^−1 s^−1"
same,"nitrite reduction to NO, faster than wild type neuroglobin",[2]; relative to wild type,approximately 2000 times
same,inhibition of respiration (cyanide = 100%),[3],96±2%
same,BRC of nitrite ferric heme reduction,[4],0.032 ± 0.002
same,extent of respiration inhibition compared to cyanide,SHSY5Y cells,~40%
same,rate of NO detected in gas phase (in words),"[5]; 20 μM Ngb, 1 mM nitrite, anaerobic",increased
same,NO generation with increasing amounts of nitrite (in words),"[5]; 30 μM protein, nitrite 10-1000 μM",a readily proportional NO generation response was observed
same,Kd,[6],170 ± 80 µM

# From patent US9114109B2, “Five-coordinate neuroglobin and use thereof as a blood substitute” (University of Pittsburgh—Of the Commonwealth System of …, priority 2009, dated 2015)
